Several values for one entry are separate records, joined by “and”; a condition that tells them apart may be missing. Identical values can stand only once.
Tests used:
[1] = Reductive amination activity; type: biochemical
[2] = Kinetic parameter for NADH (PheDH-AmDH); type: biochemical
Experimental: Kinetic parameters, kcat and KM, were determined for the enzyme and each of the reductive amination substrates; respectively. […] The kcat value for this AmDH enzyme with all three substrates saturated in aqueous NH4Cl/NH4OH buffer at pH 9.6 was 6.85 s^−1 at 25° C. This represents a near 15-fold enhancement above the maximum observed kcat of 0.46 s^−1 of the previously developed LeuDH-AmDH.

[3] = Reductive amination of PFPA, spectrophotometric assay at 340 nm; type: biochemical
Experimental: (§1) Activity of purified proteins was measured using a spectrophotometric assay at 340 nm, corresponding to the cofactor nicotinamide adenine dinucleotide (NADH, ε340=6220 M^−1 cm^−1) (Dawson, et al., Clarendon Press, (1989). For reductive amination, reactions took place in 500 mM NH4Cl/NH4OH at pH 9.6, with 200 μM NADH and 20 mM of the ketone substrate, unless otherwise specified. For oxidative deamination, reactions took place in 0.1 M NaHCO3/Na2CO3 buffer at pH 10.0, with 1 mM NAD+ with 10 mM of the amine substrate of interest. All reactions were performed at 25° C. unless otherwise specified. Enzyme was added in 10 μL aliquots in dilute concentrations. Enzyme concentrations varied upon activity levels with the substrate present, but were dilute enough to ensure linear conversion kinetics over the analytical time period (10 min to 30 min). Specific activities were then calculated from the stoichiometric conversion of cofactor as determine by the change in absorbance at 340 nm over time.
(§2) The activity of the purified protein was evaluated using a spectrophotometric assay at 340 nm as described in Section 3.2.3 at 25° C. in various concentrations of NH4Cl/NH4OH buffer pH 9.6.
Active variants were identified by the rate of change in absorbance at 340 nm, corresponding to the fastest activity. […] Some variants consumed the cofactor too quickly (<5 min) to be observed over multiple time points, and gave low absorbance in the initial time point. These variants were included for further characterization. The successful variants were sequenced (MWG Operon), and each unique sequence was expressed in pET28a/BL21 for histag purification and determination of kcat and KM values with PFPA.

[4] = Thermostability by circular dichroism (PheDH); type: physicochemical
Excerpt: The thermostability of the AmDH was compared to its wild-type scaffold using two different methods, circular dichroism (CD) and a temperature versus activity profile. The mutation of the enzyme scaffold has affected the thermostability, in addition to the enzyme's function. […] Beyond 30 degrees, there is an earlier onset in the pronounced loss of structure of the double variant compared to the wild type; however, the slope folded fraction over temperature stays constant, indicative of constant enthalpy of melting. The K77S N276L mutations have slightly destabilized the protein structure, resulting in a melting point of 59.9° C., 4.4° C. less than the wild type. The specific cause for this change is difficult to determine. It likely to be either disruption of the ‘ideal’ packing of the wild-type enzyme's hydrophobic core or a net decrease in hydrophobicity by the amino acid substitutions which leads to a lower folding entropy.

[5] = Reductive amination, spectrophotometric assay at 340 nm; type: biochemical; conditions: 500 mM NH4Cl/NH4OH pH 9.6, 200 μM NADH, 20 mM, 25° C.
Experimental: as §1, §2

[6] = as above; type: biochemical; conditions: 500 mM NH4Cl/NH4OH pH 9.6, 200 μM NADH, 20 mM, 25° C.; remark: listed apart in the source
[7] = Oxidative deamination, spectrophotometric assay at 340 nm; type: biochemical; conditions: deamination, 0.1M glycine pH 10.0, 1 mM NAD+, 20 mM, 25° C.
Experimental: as §1, with “For oxidative deamination, reactions took place in 0.1 M NaHCO3/Na2CO3 buffer at pH 10.0, with 1 mM NAD+ with 10 mM of the amine substrate of interest.” left out
The enantioselectivity was initially estimated by measuring the deamination activity toward individual enantiomers of methylbenzylamine (MBA). […] A preference towards (R)-MBA over the corresponding (S)-enantiomer was evident in the discrepancies between the deamination activities of 0.586 U mg^−1 and 0.002 U mg^−1, respectively. These preliminary results were corroborated through direct measurement of the enantioselectivity of the MIBK amination in producing chiral 1,3-DMBA.

[8] = Temperature versus activity profile (PheDH-AmDH); type: biochemical
Experimental: The thermostability of the double variant K77S N276L was additionally determined by a temperature versus activity plot, showing the results of amination activity measured in 5 M NH4Cl/NH4OH buffer pH 9.6, 200 μM NADH, 20 mM PFPA for 2 minutes (FIG. 17). […] The near linear increase corresponds to a low activation energy of 241 J mol^−1. The maximum specific activity was 11.6 U mg^−1 at a temperature of 50° C. Above 50° C., the enzyme began to rapidly lose activity as a result of denaturation. This deactivation correlated well with the circular dichroism data, where a dramatic loss of secondary structure was observed from 50° C. to 70° C.

[9] = Oxidative deamination, spectrophotometric assay at 340 nm; type: biochemical; conditions: deamination

B1: K77S N276L: PheDH-AmDH double variant, SEQ ID NO:2; PheDH library 1 hit 1H4 (protein)
chain: SLVEKTSIIKDFTLFEKMSEHEQVVFCNDPATGLRAIIAIHDTTLGPALGGCRMQPYNSVEEALEDALRLSKGMTYSCAASDVDFGGGKAVIIGDPQKDKSPELFRAFGQFVDSLGGRFYTGTDMGTNMEDFIHAMKETNCIVGVPEAYGGGGDSSIPTAMGVLYGIKATNKMLFGKDDLGGVTYAIQGLGKVGYKVAEGLLEEGAHLFVTDINEQTLEAIQEKAKTTSGSVTVVASDEIYSQEADVFVPCAFGGVVNDETMKQFKVKAIAGSANLQLLTEDHGRHLADKGILYAPDYIVNSGGLIQVADELYEVNKERVLAKTKHIYDAILEVYQQAELDQITTMEAANRMCEQRMAARGRRNSFFTSSVKPKWDIRN
[1]
  activity level, 1,3 Phenylbutanedione: 30 mU/mg
[2]
  Km: 0.0239 mM
[3]
  enhancement above maximum kcat of LeuDH-AmDH: ~15 fold
[3]; 500 mM NH4Cl/NH4OH pH 9.6, 200 μM NADH, apparent
  kcat, amination of PFPA: 2.8 s⁻¹
[3]; 500 mM NH4Cl/NH4OH pH 9.6, 200 μM NADH, read-out: KM, amination of PFPA
  Km: 4.37 mM
[3]; 5 M NH4Cl/NH4OH pH 9.6, 200 μM NADH, read-out: KM value of PFPA
  Km: 7.75 mM
[3]; aqueous NH4Cl/NH4OH buffer pH 9.6, 25° C.
  kcat with all three substrates saturated: 6.85 s⁻¹
[4]
  decrease of melting point versus the wild type: 4.4 °C
[4]; 100 μg mL-1, 50 mM sodium phosphate pH 8.0
  melting point: 59.9 °C
[5]
  Activity, 1-Boc-piperidone: 7.8 ± 1.1 mU/mg
  Activity, 2-hexanone: 155.7 mU/mg and 155.7 ± 1.4 mU/mg
  Activity, 2-methylcyclohexanone: 19.3 ± 1.1 mU/mg
  Activity, 3-hexanone: 1.6 mU/mg and 1.6 ± 0.5 mU/mg
  Activity, 3-methyl-2-butanone: 72.7 ± 1.4 mU/mg
  Activity, 3-methylcyclohexanone: 41.1 ± 2.1 mU/mg
  Activity, 3-pentanone: 1.3 ± 0.0 mU/mg
  Activity, Benzyloxyacetic acid: 22.6 ± 0.7 mU/mg
  Activity, benzaldehyde: 31.4 ± 8.7 mU/mg
  Activity, cyclopentanone: 0.9 ± 0.5 mU/mg
  Activity, phenoxy-2-propanone: 540.8 ± 6.9 mU/mg
[5]; listed as K77S/N276L
  Activity, 2-hexanone: 155.7 mU/mg
  Activity, 3-hexanone: 1.6 mU/mg
[6]
  Activity, MIBK: 77.0 ± 1.3 mU/mg
  Activity, cyclohexanone: 27.5 ± 1.4 mU/mg
  Activity, ethylpyruvate: 18.4 ± 5.9 mU/mg
[7]
  Activity, R-MBA: 1.9 ± 1.8 mU/mg
  Activity, S-MBA: <1.0 mU/mg
[8]; 10-45° C.
  activation energy: 0.0576 kcal/mol
[8]; at 50° C., 5 M NH4Cl/NH4OH pH 9.6, 200 μM NADH, 20 mM PFPA
  maximum specific activity: 11.6 U mg^−1
[9]; 40 mM, 20 mM of each enantiomer
  Activity, R/S-MBA: 0.5 ± 0.2 mU/mg
[9]; 0.1M glycine pH 10.0, 1 mM NAD+, 20 mM, 25° C.
  Activity, 1,3-DMBA: 166.3 ± 0.0 mU/mg

Reference: patent US8835136B2, “Engineered amine dehydrogenases and methods of use thereof” (Georgia Tech Research Corporation, priority 2012, dated 2014)
